B1: Mitogen-activated protein kinase ERK-A (Drosophila melanogaster (Fruit fly)), P40417 (parent)
chain: MEEFNSSGSVVNGTGSTEVPQSNAEVIRGQIFEVGPRYIKLAYIGEGAYGMVVSADDTLTNQRVAIKKISPFEHQTYCQRTLREITILTRFKHENIIDIRDILRVDSIDQMRDVYIVQCLMETDLYKLLKTQRLSNDHICYFLYQILRGLKYIHSANVLHRDLKPSNLLLNKTCDLKICDFGLARIADPEHDHTGFLTEYVATRWYRAPEIMLNSKGYTKSIDIWSVGCILAEMLSNRPIFPGKHYLDQLNHILGVLGSPSRDDLECIINEKARNYLESLPFKPNVPWAKLFPNADALALDLLGKMLTFNPHKRIPVEEALAHPYLEQYYDPGDEPVAEVPFRINMENDDISRDALKSLIFEETLKFKERQPDNAP

Experiments:
Settings in all cases: with arrb2_human ARRB2, P32121
[1] = variants of: B1
[2] = variants of: B1; remark: listed apart in the source
[3] = variants of: B1; remark: listed apart in the source

| effect of a mutation on the interaction [1] | effect of a mutation on the interaction [2] | effect of a mutation on the interaction [3] | Variant |
| --- | --- | --- | --- |
| disrupting interaction | disrupting interaction strength |  | T198E |
| disrupting interaction |  | decreasing interaction | Y200E |
